Source: US20100095387A1, “METHODS AND REAGENTS FOR SCREENING NEW DRUGS AND FOR TREATING ION PUMP ASSOCIATED DISORDERS AND DISEASES” (priority 2005, published 2010)
“Also recorded” adds a separate entry of the source.

Tests used:
α3Na+/K+-ATPase [1] = target: T1, α3Na+/K+-ATPase (Mus musculus, UniProt Q6PIC6); assay: Na+ imaging (SBFI-AM) of cultured cortical cells; assay type: cell-based
cardiac myocytes [2] = assay: Spontaneous contraction frequency of cultured cardiac myocytes; assay type: cell-based, mouse
Method: FIG. 17. Cardiac myocyte contraction is agrin dependent. Cardiac myocytes were prepared from hearts of individual embryos produced by heterozygous pairings. The genotype of cultures was determined by PCR analysis of tissue samples from each embryo. Myocytes were maintained in 199 medium containing 10% FCS as described (Mitcheson et al., 1998). At 5 days in culture, the frequency of spontaneous contractions was determined by counting contractions in myocytes from 5 random fields at 300× magnification for 30 seconds. Contraction frequency is dependent on Agrn gene dosage such that Agrn−/−>Agrn+/−>Agrn+/+. Addition of C-Ag208 to the growth medium rescues the Agrn mutant phenotype whereas C-Ag15 increased the contraction frequency of wild type myocytes to a level similar to Agrn−/− cells. Bars show mean±SEM for a minimum of 2 independent platings from 3 embryos, except for Agrn+/−treated with C-Ag208, which was a single plating of 2 embryos. All data were collected blind with respect to genotype and agrin treatment. *** p≦0.001. ANOVA with Bonferroni post-hoc pair-wise comparison.
Quantitative studies confirmed and extended these observations by showing that the frequency of myocyte contraction is dependent on agrin gene dose: Agrn−/− myocyte contraction frequency is about 2-fold higher and Agrn+/− 1.5-fold higher than Agrn+/+ myocytes (FIG. 17). To learn whether the effect of the Agrn mutation on myocyte contraction is a direct result of the loss of agrin expression the effects of growing the cells in media supplemented with C-Ag208, an active agrin fragment, or C-Ag15, the agrin antagonist was next examined.

cerebellar neurons = assay: Fos expression in cerebellar neurons; assay type: cell-based, mouse; settings: 1 nM C-Ag15 with 50 pM C-Ag95z8
Method: (§1) Mouse cortical cultures were prepared from newborn or 1-d-old ICR strain mice (Harlan) as described previously (Hilgenberg et al., 1999). For the first 24 h after plating, cells were maintained in neural basal medium (NBM) plus B27 supplements (Invitrogen), and in nonneuronal cell-conditioned NBM (cNBM) plus B27 thereafter, at 37° C. in humidified 5% CO2 atmosphere. To further reduce proliferation of nonneuronal cells, cultures on glass coverslips used for histology were treated with 5 μM 5-fluoro-2-deoxyuridine (Sigma-Aldrich) 3-4 d after plating. Hippocampal and cerebellar cultures were prepared in a similar manner. Experiments were performed on 10-14-d-old cultures. Agrin-deficient neuron cultures were prepared from cortices of embryonic d 18-19 fetuses resulting from matings between mice heterozygous for a mutation in the agrin gene (Gautam et al., 1996). Cultures were prepared and genotyped as described previously (Li et al., 1999), and were maintained as above.
Fos expression in cortical cultures was measured by in situ enzyme-linked immunoassay (Hilgenberg et al., 1999). In brief, 11-14-d-old neuronal cultures were treated for 10 min with agrin or other agent diluted in NBM or PBS, then washed in cNBM and returned to the incubator for 2 h. […] The level of Fos expression was determined by monitoring conversion of p-nitrophenyl phosphate to a soluble yellow reaction product at 405 nm. […]

chick skeletal myotubes = assay: Fos expression in chick muscle cultures; assay type: cell-based; settings: 1 nM C-Ag15 with 50 pM C-Ag95z8
Method: Chick muscle cultures were prepared from pectoral muscles of 10-11-d-old White Leghorn chick embryos as described previously (Hilgenberg et al., 1999). Experiments were performed on 4-6-d-old cultures.
Fos expression in cortical cultures was measured by in situ enzyme-linked immunoassay (Hilgenberg et al., 1999). In brief, 11-14-d-old neuronal cultures were treated for 10 min with agrin or other agent diluted in NBM or PBS, then washed in cNBM and returned to the incubator for 2 h. Cultures were rinsed in PBS, fixed in ice cold 4% PFA, and blocked in PBS containing 0.1% Triton X-100 and 4% BSA (PBSTB) before being incubated in a primary rabbit antibody against Fos (Ab-2; Oncogene Research Products) and secondary goat antibody against […] conjugated to alkaline phosphatase (Southern Biotechnology Associates, Inc.). The level of Fos expression was determined by monitoring conversion of p-nitrophenyl phosphate to a soluble yellow reaction product at 405 nm.
To learn whether inhibition of agrin signaling by C-Ag15 might extend to other neurons or even muscle, mouse hippocampal and cerebellar neurons or chick skeletal myotubes were incubated with 50 pM C-Ag95z8 alone or in the presence of 1 nM C-Ag15, a concentration that blocks activity in cortical neurons. […] However, co-incubation with C-Ag15 inhibited Fos expression in the neurons, but had no effect on muscle. […]

[3] = system: cultured cortical neurons; assay: Firing properties of cultured cortical neurons in normal external solution; assay type: cell-based, mouse; settings: co-incubation with C-Ag15
[4] = target: rat α3 subunit of the Na+/K+-ATPase (Rattus norvegicus, UniProt P06687); assay: Na+ imaging of non-neuronal cells transfected with pRcα3; assay type: cell-based
α3Na+/K+-ATPase [5] = target: T1, α3Na+/K+-ATPase; assay: Whole cell current clamp of cultured cortical neurons, channel blockers present; assay type: cell-based
chick myotubes = assay: AChR clustering assay; assay type: cell-based; settings: 1 nM C-Ag15 with 50 pM C-Ag95z8 overnight
cortical neurons = assay: c-fos induction, Fos in situ enzyme-linked immunoassay in cortical cultures; assay type: cell-based, mouse; settings: C-AgΔ20 at 50 pM or 5 nM; C-Ag15 up to fivefold above saturation for C-Ag20z0/8
Method: as §1
Fos expression in cortical cultures was measured by in situ enzyme-linked immunoassay (Hilgenberg et al., 1999). In brief, 11-14-d-old neuronal cultures were treated for 10 min with agrin or other agent diluted in NBM or PBS, then washed in cNBM and returned to the incubator for 2 h. […] The level of Fos expression was determined by monitoring conversion of p-nitrophenyl phosphate to a soluble yellow reaction product at 405 nm.

[6] = system: layer V neurons in acute cortical slices; assay: Whole cell current clamp of layer V neurons in acute cortical slices; assay type: cell-based, mouse
[7] = system: cultured cortical neurons; assay: Glutamate excitotoxic injury of cultured cortical neurons, LDH in growth medium; assay type: cell-based; settings: 10 minutes glutamate with C-Ag15; preliminary data
Method: FIG. 15. C-Ag15 is neuroprotective for excitotoxic injury. Cultured cortical eurons were treated for 10 minutes with the excitatory neurotransmitter glutamate in the presence of the indicated concentration of C-Ag15 and degree of neuronal injury assessed by monitoring the level of LDH in the growth medium. Data are expressed as a percentage of the LDH in sister cultures treated with glutamate alone. The neuroprotective effect of C-Ag15 is dose-dependent.

cardiac myocytes [8] = assay: Ca2+ (Fura-2) and Na+ imaging of cultured cardiac myocytes; settings: 10 fold excess of C-Ag15

B1: C-Ag15: 15-kD COOH-terminal fragment of agrin created by deleting 37 amino acids from the NH2 terminus of C-Ag20, SEQ. ID NO. 3 (protein)
chain: MDPWIGKAAERADYMALAIVDGHLQLSYDLASQPVVLRSTVKVNTNRWLRVRAHREHREGSLQVGNEAPVTSSSPLGATQLDTDGALWLGGLQKLPVGQPLPKAYGTGFVGCLRNVVGHRQLHLLEDAVTKPELRPCPTLNSKLGPEQKLISEEDLNSAVDHHHHHH
modifications: Synthetically produced sequence
α3Na+/K+-ATPase [1]
  effect on Na+ increase induced by active agrin fragments: blocked
  effect on ouabain-induced increase in neuronal Na+: blocked; also recorded: significantly reduced
  neuronal intracellular Na+: no significant effect
Cardiac myocytes [2]; Agrn+/+ and Agrn+/− myocytes grown in fragment
  contraction frequency: significantly increased
Cardiac myocytes [2]; Agrn−/− cells grown in fragment
  contraction frequency: no effect
Cerebellar neurons
  effect on C-Ag95z8-induced Fos expression: completely inhibited
Chick skeletal myotubes
  effect on C-Ag95z8-induced Fos expression: no effect
[3]
  effect on depolarization and action potential increase induced by C-Ag20 isoforms: blocked
[4]
  antagonism of active agrin fragments: effective antagonist
  intracellular Na+ in cells expressing the α3 subunit: unaffected
α3Na+/K+-ATPase [5]
  change in membrane potential: −1.0±0.4 mV
  effect on depolarization induced by active agrin fragments: effective in blocking depolarization
  effect on ouabain induced membrane depolarization: blocked
Chick myotubes
  effect on AChR clustering activity of C-Ag95z8: no effect
Cortical neurons
  effect of fragment alone on Fos expression: no effect
[6]; in kainic acid
  time to repolarization after addition: ≤ 10 min
[6]; kainic acid 0.5 μM + C-Ag15
  membrane potential: −66.3±1.8 mV
[6]; kainic acid plus C-Ag15
  action potential frequency: 0.01±0.005 Hz
[6]; slices
  effect on response to C-Ag200: blocked
[6]; two spontaneously active neurons
  spontaneous action potentials: reversibly inhibited
[7]
  neuronal injury, LDH in growth medium: neuroprotective; also recorded: dose-dependent
Cardiac myocytes [8]
  antagonism of C-Ag208 response: effective agrin antagonist; also recorded: effectively blocks
